We go through six molecules from patent US20110059095A1.

Experiment [1] concerns the target full length human PAR-2 (human) (UniProt P55085). As to the kind of experiment: cell ELISA, 10 ug/ml antibody. On the technique in general: ELISA stands for enzyme-linked immunosorbent assay.
The target in experiment [2] is full length mouse PAR-2 (mouse) (UniProt P55086). The experiment can be described thus: cell-based or functional assay.
Experiment [3] has as its target full length human PAR-2 (human) (UniProt P55085). The experiment can be described thus: cell-based or functional assay.
Another experiment has as its target monkey PAR-2 (monkey). The experiment can be described thus: cell-based or functional assay.

Numbering of substitutions follows the chain as printed.

full length mouse PAR-2 (mouse), sequence (P55086 other isoform, or with tags, fused parts or gaps limits assumed): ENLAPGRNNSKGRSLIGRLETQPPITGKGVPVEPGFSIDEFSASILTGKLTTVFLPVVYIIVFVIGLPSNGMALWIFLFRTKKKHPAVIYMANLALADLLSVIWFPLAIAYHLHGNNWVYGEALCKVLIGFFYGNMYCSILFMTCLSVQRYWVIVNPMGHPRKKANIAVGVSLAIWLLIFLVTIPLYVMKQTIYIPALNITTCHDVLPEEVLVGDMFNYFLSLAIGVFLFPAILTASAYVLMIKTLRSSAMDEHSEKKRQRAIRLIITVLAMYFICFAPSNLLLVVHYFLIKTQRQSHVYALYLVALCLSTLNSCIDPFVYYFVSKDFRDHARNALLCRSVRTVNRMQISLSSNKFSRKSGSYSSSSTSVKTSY
full length human PAR-2 (human), sequence (P55085 26-397 G138A limits assumed): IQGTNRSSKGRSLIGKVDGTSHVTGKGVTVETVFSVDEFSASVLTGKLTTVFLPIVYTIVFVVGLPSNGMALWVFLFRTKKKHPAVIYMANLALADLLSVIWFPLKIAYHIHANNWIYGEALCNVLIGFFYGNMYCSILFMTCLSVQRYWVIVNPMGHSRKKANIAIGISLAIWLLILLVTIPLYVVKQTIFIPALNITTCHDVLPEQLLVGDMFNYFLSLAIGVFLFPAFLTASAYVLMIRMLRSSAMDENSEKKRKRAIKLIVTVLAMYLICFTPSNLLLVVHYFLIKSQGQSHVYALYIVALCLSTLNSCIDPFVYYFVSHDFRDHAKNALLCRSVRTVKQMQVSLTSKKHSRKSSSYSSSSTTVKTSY

B1: H2M611N (antibody, V domains shown)
VH: EVQLLESGGGLVQPGGSLRLSCAASGFTFSSYAMTWVRQAPGKGLYWVSAISGSGGSAYYADSVKGRFTISRDNSKNTLYLQMNSLRAEDTAVYYCAKEGDSGYDLDYWGRGTLVTVSS
VL: DIQMTQSPSSLSASVGDRVTITCRARQGISNYLAWLQQKPGKAPKSLIYAASSLQSGVPSKFSGSGSGTDFTLTISSLQPEDFATYYCQQYKSSPLTFGGGTKVEIK
Regarding B1, the A450 ratio (293/D9/hPAR-2rec to 293/D9 cells) in experiment [1] is 1.76.

B2: H4H581P (antibody, human IgG4, V domains shown)
VH: QVQLVESGGGVVQPGRSLRLSCVASGFTFSRYGIHWVRQAPGKGLEWVIVISYDGINKYYADSVKGRFTISRDNSKNTVYLQMNSLRAEDTAVYYCAKGDFWSGYFDYWGQGTLVTVSS
VL: DIVMTQTPLSSPVTLGQPASISCRSSQSLVHSDGNTYLSWLHQRPGQPPRLLIYKISNRFSGVPDRFSGSGAGTDFTLQISRVEAEDVGIYYCMQATQFPTFGGGTKVEIK
B2: in experiment [2], the H4H581P IC50, NF-kB-luciferase, Bovine Factor Xa was determined as 0.34 µM; the H4H581P IC50, NF-kB-luciferase, Human Factor Xa was 0.109 µM; the H4H581P IC50, NF-kB-luciferase, Human Kallikrein 14 is 0.256 µM; the H4H581P IC50, NF-kB-luciferase, Human Pancreatic Trypsin is 0.491 µM.

B3: H2M609N (antibody, V domains shown)
VH: EVQLVESGGGLVQPGRSLRLSCAASGFTFDDYAMHWVRQAPGKGLEWVSGISWNSGSKGFADSVKGRFTISRDNAKNSLYLQMNSLRVEDTALYYCAKENWSFDYWGQGTLVTVSS
VL: DIVMTQTPLSSPVTLGQPASISCRSSQSLVHSDGNIYLSWLQQRPGQPPRLLIYKISNRFSGVPDRFSGSGAGTDFTLKISRVEAEDVGIYYCMQASHFPYTFGQGTKLEIK
As to B3, the A450 ratio (293/D9/hPAR-2rec to 293/D9 cells) in experiment [1] turned out to be 1.54.

B4: H1M619N (antibody, V domains shown)
VH: B3 VH with P14A, K58R, F60Y, Y80H, N84Y, V88A
VL: B3 VL with I36T, N58Y, E84A, A85T, I90V, S97T, H98Q, F99L
For B4, the A450 ratio (293/D9/hPAR-2rec to 293/D9 cells) in experiment [1] came out at 1.51.

B5: Human Kallikrein 14 (enzyme, UniProt Q9P0G3 25-251, looked up)
chain: IIGGHTCTRSSQPWQAALLAGPRRRFLCGGALLSGQWVITAAHCGRPILQVALGKHNLRRWEATQQVLRVVRQVTHPNYNSRTHDNDLMLLQLQQPARIGRAVRPIEVTQACASPGTSCRVSGWGTISSPIARYPASLQCVNINISPDEVCQKAYPRTITPGMVCAGVPQGGKDSCQGDSGGPLVCRGQLQGLVSWGMERCALPGYPGVYTNLCKYRSWIEETMRDK
With B5, the EC50 of activator, NF-kB-luciferase in experiment [3] turned out to be 0.005 µM; in experiment [2] it was 0.008 µM; with monkey PAR-2 (monkey) it was 0.0063 µM.

B6: H3M620N (antibody, V domains shown)
VH: EVQLVESGGNVVRPGGSLRLSCAASGFTFDDYGMTWVRQVPGKGLEWVSGINWNGGSTDYADSVKGRFTISRDNAKNSLYLQMNSLRAEDTALYYCARDKGFYGMDVWGQGTTVTVSS
VL: DIVMTQSPDSLAVSLGERATINCKSSQNPLYNSNKKKYLAWYQQKPGQPPKLVIYWASTRESGVPDRFSGSGSGTDFTLTITSLQAEDVAVYYCQQYYSTPYTFGQGTKLEIK
B6: the A450 ratio (293/D9/hPAR-2rec to 293/D9 cells) in experiment [1] came out at 1.24.
